Test results reported in patent US20160002357A1.

Experiments:
[1] = molecular target: human P-cadherin, cell surface expressed (human) (UniProt P22223); assay: flow cytometry, PE-labeled mAb, SW480 cells
[2] = molecular target: human P-cadherin, cell surface expressed (human) (UniProt P22223); assay: flow cytometry, PE-labeled mAb, SW620 cells
[3] = molecular target: human P-cadherin, cell surface expressed (human) (UniProt P22223); assay: flow cytometry, PE-labeled mAb, HCT116 cells
[4] = molecular target: human P-cadherin, cell surface expressed (human) (UniProt P22223); assay: flow cytometry, PE-labeled mAb, Ls174T cells
[5] = molecular target: human P-cadherin, cell surface expressed (human) (UniProt P22223); assay: flow cytometry, PE-labeled mAb, SUM149 cells
[6] = molecular target: human P-cadherin, cell surface expressed (human) (UniProt P22223); assay: flow cytometry, PE-labeled mAb, BT20_Luc cells
[7] = molecular target: human P-cadherin, cell surface expressed (human) (UniProt P22223); assay: flow cytometry, PE-labeled mAb, H322_Luc cells
[8] = molecular target: human P-cadherin, cell surface expressed (human) (UniProt P22223); assay: flow cytometry, PE-labeled mAb, HT29_Luc cells
[9] = molecular target: human P-cadherin, cell surface expressed (human) (UniProt P22223); assay: flow cytometry, PE-labeled mAb, LoVo_Luc cells
[10] = molecular target: human P-cadherin, cell surface expressed (human) (UniProt P22223); assay: flow cytometry, PE-labeled mAb, H1650_Luc cells
[11] = molecular target: human P-cadherin, cell surface expressed (human) (UniProt P22223); assay: flow cytometry, PE-labeled mAb, H1975_Luc cells
[12] = molecular target: human P-cadherin, cell surface expressed (human) (UniProt P22223); assay: flow cytometry, PE-labeled mAb, SW480_Luc cells
[13] = molecular target: human P-cadherin, cell surface expressed (human) (UniProt P22223); assay: flow cytometry, PE-labeled mAb, SW620_Luc cells
[14] = molecular target: human P-cadherin, cell surface expressed (human) (UniProt P22223); assay: flow cytometry, PE-labeled mAb, HCT116_Luc cells
[15] = molecular target: human P-cadherin, cell surface expressed (human) (UniProt P22223); assay: flow cytometry, PE-labeled mAb, Ls174T_Luc cells
[16] = molecular target: human P-cadherin, cell surface expressed (human) (UniProt P22223); assay: flow cytometry, PE-labeled mAb, SUM149_Luc cells
[17] = molecular target: human P-cadherin, cell surface expressed (human) (UniProt P22223); assay: flow cytometry, PE-labeled mAb, Colo205_Luc cells
[18] = molecular target: human P-cadherin, cell surface expressed (human) (UniProt P22223); assay: quantitative flow cytometry (QuantiBRITE PE), SW480 cells
[19] = molecular target: human P-cadherin, cell surface expressed (human) (UniProt P22223); assay: quantitative flow cytometry (QuantiBRITE PE), SW620 cells
[20] = molecular target: human P-cadherin, cell surface expressed (human) (UniProt P22223); assay: quantitative flow cytometry (QuantiBRITE PE), HCT116 cells
[21] = molecular target: human P-cadherin, cell surface expressed (human) (UniProt P22223); assay: quantitative flow cytometry (QuantiBRITE PE), Ls174T cells
[22] = molecular target: human P-cadherin, cell surface expressed (human) (UniProt P22223); assay: quantitative flow cytometry (QuantiBRITE PE), SUM149 cells
[23] = molecular target: human P-cadherin, cell surface expressed (human) (UniProt P22223); assay: quantitative flow cytometry (QuantiBRITE PE), BT20_Luc cells
[24] = molecular target: human P-cadherin, cell surface expressed (human) (UniProt P22223); assay: quantitative flow cytometry (QuantiBRITE PE), H322_Luc cells
[25] = molecular target: human P-cadherin, cell surface expressed (human) (UniProt P22223); assay: quantitative flow cytometry (QuantiBRITE PE), HT29_Luc cells
[26] = molecular target: human P-cadherin, cell surface expressed (human) (UniProt P22223); assay: quantitative flow cytometry (QuantiBRITE PE), LoVo_Luc cells
[27] = molecular target: human P-cadherin, cell surface expressed (human) (UniProt P22223); assay: quantitative flow cytometry (QuantiBRITE PE), H1650_Luc cells
[28] = molecular target: human P-cadherin, cell surface expressed (human) (UniProt P22223); assay: quantitative flow cytometry (QuantiBRITE PE), H1975_Luc cells
[29] = molecular target: human P-cadherin, cell surface expressed (human) (UniProt P22223); assay: quantitative flow cytometry (QuantiBRITE PE), SW480_Luc cells
[30] = molecular target: human P-cadherin, cell surface expressed (human) (UniProt P22223); assay: quantitative flow cytometry (QuantiBRITE PE), SW620_Luc cells
[31] = molecular target: human P-cadherin, cell surface expressed (human) (UniProt P22223); assay: quantitative flow cytometry (QuantiBRITE PE), HCT116_Luc cells
[32] = molecular target: human P-cadherin, cell surface expressed (human) (UniProt P22223); assay: quantitative flow cytometry (QuantiBRITE PE), Ls174T_Luc cells
[33] = molecular target: human P-cadherin, cell surface expressed (human) (UniProt P22223); assay: quantitative flow cytometry (QuantiBRITE PE), SUM149_Luc cells
[34] = molecular target: human P-cadherin, cell surface expressed (human) (UniProt P22223); assay: quantitative flow cytometry (QuantiBRITE PE), Colo205_Luc cells
[35] = molecular target: human P-cadherin expressed on the cell surface (human) (UniProt P22223); assay: cell ELISA, H1650 cells
Chain of human P-cadherin expressed on the cell surface (human) (P22223 108-829): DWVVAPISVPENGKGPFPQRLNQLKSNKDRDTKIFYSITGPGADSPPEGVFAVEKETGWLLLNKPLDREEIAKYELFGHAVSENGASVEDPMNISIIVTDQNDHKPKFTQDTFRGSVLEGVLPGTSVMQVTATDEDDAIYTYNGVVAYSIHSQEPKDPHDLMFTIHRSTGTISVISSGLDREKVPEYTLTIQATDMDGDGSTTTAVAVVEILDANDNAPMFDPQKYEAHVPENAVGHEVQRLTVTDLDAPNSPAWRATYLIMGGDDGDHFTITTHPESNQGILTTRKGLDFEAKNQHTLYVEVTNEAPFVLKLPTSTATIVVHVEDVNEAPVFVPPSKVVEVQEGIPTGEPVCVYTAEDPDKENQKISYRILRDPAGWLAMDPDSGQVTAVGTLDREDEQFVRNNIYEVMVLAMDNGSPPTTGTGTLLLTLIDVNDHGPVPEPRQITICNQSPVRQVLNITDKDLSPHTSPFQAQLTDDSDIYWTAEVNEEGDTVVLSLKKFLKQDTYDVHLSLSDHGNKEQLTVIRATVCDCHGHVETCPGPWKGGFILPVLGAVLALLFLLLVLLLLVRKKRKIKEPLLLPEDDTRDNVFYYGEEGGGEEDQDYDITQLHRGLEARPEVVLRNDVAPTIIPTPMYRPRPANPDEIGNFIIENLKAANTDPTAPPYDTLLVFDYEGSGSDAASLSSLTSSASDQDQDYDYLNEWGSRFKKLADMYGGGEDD

huP-cad-ECD (human) = huP-cad-ECD (human) (UniProt P22223); assay: ELISA, recombinant protein
Chain of huP-cad-ECD (human) (P22223 108-654): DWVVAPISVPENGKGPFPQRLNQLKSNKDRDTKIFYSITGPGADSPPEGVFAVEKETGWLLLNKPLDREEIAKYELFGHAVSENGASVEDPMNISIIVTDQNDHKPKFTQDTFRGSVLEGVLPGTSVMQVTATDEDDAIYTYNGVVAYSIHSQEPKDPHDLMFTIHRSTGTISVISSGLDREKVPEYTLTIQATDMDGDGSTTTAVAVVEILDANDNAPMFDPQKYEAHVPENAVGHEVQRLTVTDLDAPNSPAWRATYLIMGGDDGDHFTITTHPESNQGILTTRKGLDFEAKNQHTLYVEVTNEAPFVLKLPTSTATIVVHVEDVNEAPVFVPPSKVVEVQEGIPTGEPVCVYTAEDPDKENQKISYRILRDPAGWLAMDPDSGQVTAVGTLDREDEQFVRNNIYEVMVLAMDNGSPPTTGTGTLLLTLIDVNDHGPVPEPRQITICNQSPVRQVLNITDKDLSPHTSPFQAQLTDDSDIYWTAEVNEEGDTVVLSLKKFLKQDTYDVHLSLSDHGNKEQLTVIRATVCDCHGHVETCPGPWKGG

[36] = molecular target: huP-cad-ECD biotinylated (human) (UniProt P22223); assay: ELISA, recombinant protein
Chain of huP-cad-ECD biotinylated (human) (P22223 108-654): as above

muP-cad-ECD (murine) = muP-cad-ECD (murine) (UniProt P10287); assay: ELISA, recombinant protein
Chain of muP-cad-ECD (murine) (P10287 100-647): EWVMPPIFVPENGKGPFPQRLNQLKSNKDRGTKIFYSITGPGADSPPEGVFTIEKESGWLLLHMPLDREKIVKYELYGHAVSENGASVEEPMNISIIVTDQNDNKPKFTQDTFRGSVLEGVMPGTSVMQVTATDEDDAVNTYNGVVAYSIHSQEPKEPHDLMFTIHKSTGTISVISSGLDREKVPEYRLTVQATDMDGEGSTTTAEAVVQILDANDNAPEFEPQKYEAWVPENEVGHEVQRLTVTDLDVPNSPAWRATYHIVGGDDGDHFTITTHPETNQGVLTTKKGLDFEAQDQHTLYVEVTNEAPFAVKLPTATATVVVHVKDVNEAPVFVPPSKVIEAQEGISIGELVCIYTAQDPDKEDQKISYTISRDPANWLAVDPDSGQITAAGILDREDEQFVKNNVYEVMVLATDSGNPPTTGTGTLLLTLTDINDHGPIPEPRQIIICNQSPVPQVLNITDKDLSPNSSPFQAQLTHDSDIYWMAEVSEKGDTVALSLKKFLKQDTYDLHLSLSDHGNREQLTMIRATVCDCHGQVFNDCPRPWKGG

[37] = molecular target: human P-cadherin expressed on the cell surface (human) (UniProt P22223); assay: cell ELISA, CHO-huPcad cells
[38] = molecular target: human P-cadherin expressed on the cell surface (human) (UniProt P22223); assay: cell ELISA, SW480-huPcad cells
[39] = molecular target: human P-cadherin, cell surface expressed (human) (UniProt P22223); assay: flow cytometry, PE-conjugated mAb, SW480 cells
[40] = molecular target: human P-cadherin, cell surface expressed (human) (UniProt P22223); assay: flow cytometry, PE-conjugated mAb, SW620 cells
[41] = molecular target: human P-cadherin, cell surface expressed (human) (UniProt P22223); assay: flow cytometry, PE-conjugated mAb, HCT116 cells
[42] = molecular target: human P-cadherin, cell surface expressed (human) (UniProt P22223); assay: flow cytometry, PE-conjugated mAb, Ls174T cells
[43] = molecular target: human P-cadherin, cell surface expressed (human) (UniProt P22223); assay: flow cytometry, PE-conjugated mAb, SUM149 cells
[44] = molecular target: human P-cadherin, cell surface expressed (human) (UniProt P22223); assay: flow cytometry, PE-conjugated mAb, BT20_Luc cells
[45] = molecular target: human P-cadherin, cell surface expressed (human) (UniProt P22223); assay: flow cytometry, PE-conjugated mAb, H322_Luc cells
[46] = molecular target: human P-cadherin, cell surface expressed (human) (UniProt P22223); assay: flow cytometry, PE-conjugated mAb, HT29_Luc cells
[47] = molecular target: human P-cadherin, cell surface expressed (human) (UniProt P22223); assay: flow cytometry, PE-conjugated mAb, LoVo_Luc cells
[48] = molecular target: human P-cadherin, cell surface expressed (human) (UniProt P22223); assay: flow cytometry, PE-conjugated mAb, H1650_Luc cells
[49] = molecular target: human P-cadherin, cell surface expressed (human) (UniProt P22223); assay: flow cytometry, PE-conjugated mAb, H1975_Luc cells
[50] = molecular target: human P-cadherin, cell surface expressed (human) (UniProt P22223); assay: flow cytometry, PE-conjugated mAb, SW480_Luc cells
[51] = molecular target: human P-cadherin, cell surface expressed (human) (UniProt P22223); assay: flow cytometry, PE-conjugated mAb, SW620_Luc cells
[52] = molecular target: human P-cadherin, cell surface expressed (human) (UniProt P22223); assay: flow cytometry, PE-conjugated mAb, HCT116_Luc cells
[53] = molecular target: human P-cadherin, cell surface expressed (human) (UniProt P22223); assay: flow cytometry, PE-conjugated mAb, Ls174T_Luc cells
[54] = molecular target: human P-cadherin, cell surface expressed (human) (UniProt P22223); assay: flow cytometry, PE-conjugated mAb, SUM149_Luc cells
[55] = molecular target: human P-cadherin, cell surface expressed (human) (UniProt P22223); assay: flow cytometry, PE-conjugated mAb, Colo205_Luc cells

Chain of human P-cadherin, cell surface expressed (human) (P22223 108-829): as the sequence (P22223 108-829) above

Substance “anti-human P-cadherin mAb PF-03732010, phycoerythrin (PE) labeled (antibody)” has an MFI [1] of 2470, an MFI [2] of 297 and an MFI [3] of 8030. The MFI [4] was 986, the MFI [5] was 2870 and the MFI [6] was 5240. For the same substance, the MFI [7] was 3230, the MFI [8] was 787 and the MFI [9] was 1390. It also gave an MFI [10] of 7960, an MFI [11] of 3160 and an MFI [12] of 1260. The MFI [13] was 276, the MFI [14] was 5660 and the MFI [15] was 290. For the same substance, the MFI [16] was 3720, the MFI [17] was 357 and the ABC (antibodies bound per cell) (antibodies bound per cell) [18] was 12700. For the same substance, the ABC (antibodies bound per cell) (antibodies bound per cell) [19] was 1120, the ABC (antibodies bound per cell) (antibodies bound per cell) [20] was 43800 and the ABC (antibodies bound per cell) (antibodies bound per cell) [21] was 4160. The ABC (antibodies bound per cell) (antibodies bound per cell) [22] was 15400, the ABC (antibodies bound per cell) (antibodies bound per cell) [23] was 24300 and the ABC (antibodies bound per cell) (antibodies bound per cell) [24] was 16600. It also gave an ABC (antibodies bound per cell) (antibodies bound per cell) [25] of 2420, an ABC (antibodies bound per cell) (antibodies bound per cell) [26] of 5800 and an ABC (antibodies bound per cell) (antibodies bound per cell) [27] of 37600. The ABC (antibodies bound per cell) (antibodies bound per cell) [28] was 15400, the ABC (antibodies bound per cell) (antibodies bound per cell) [29] was 5300 and the ABC (antibodies bound per cell) (antibodies bound per cell) [30] was 715. For the same substance, the ABC (antibodies bound per cell) (antibodies bound per cell) [31] was 26400, the ABC (antibodies bound per cell) (antibodies bound per cell) [32] was 929 and the ABC (antibodies bound per cell) (antibodies bound per cell) [33] was 17000. The ABC (antibodies bound per cell) (antibodies bound per cell) [34] was 874.
“anti-P-cadherin clinical mAb PF-03732010 (antibody)” showed an EC50 [35] of 0.209 nM, an EC50 (huP-cad-ECD (human)) of 1.94 nM and an EC50 [36] of 0.0188 nM. It also gave an EC50 (muP-cad-ECD (murine)) of 2.33 nM, an EC50 [37] of 0.329 nM and an EC50 [38] of 0.167 nM.
“control mouse IgG1 mAb (Biolegend), PE conjugated (antibody)” was tested, and the MFI [39] was 171, the MFI [40] was 88 and the MFI [41] was 239. It also gave an MFI [42] of 222, an MFI [43] of 68 and an MFI [44] of 225. For the same substance, the MFI [45] was 242, the MFI [46] was 282 and the MFI [47] was 175. It also gave an MFI [48] of 254, an MFI [49] of 373 and an MFI [50] of 151. It also gave an MFI [51] of 125, an MFI [52] of 229 and an MFI [53] of 94. The MFI [54] was 213 and the MFI [55] was 173.
